Experimental findings from PMC11058820 are described below.

For this assay, the target named is HLA-A*11:01 monomer (commercial, biotinylated, preloaded with a UV-sensitive peptide that is destroyed by UV) (human). In words: ELISA; UV-mediated peptide exchange: 25 μM peptide in PBS mixed 1:1 with […] biotinylated UV-sensitive HLA-A*11:01 monomer on ice, 366 nm UV 30 min; stable monomers captured on streptavidin plates and detected with HRP anti-human β2-microglobulin; result as percentage of positive signal against positive and negative control peptides. (In general: An ELISA detects its analyte on a solid surface through an enzyme-linked reagent.)

The molecule VVGAGGVGK [KRAS_(8–16)^WT peptide] came in with a percentage of positive signal of 46.6%.
